According to paper doi:10.1101/481713:

Legend:
[1] = target: Xenopus laevis CENP-E-GFP construct (1-473 aa) (Xenopus laevis); test: binding of microtubules to protein-coated beads seen by fluorescence microscopy
[2] = target: human Broccoli Ndc80-GFP construct (human) (UniProt O14777); test: as above
[3] = target: human Broccoli Ndc80-GFP construct (human) (UniProt O14777)

Sequence of UniProt O14777 (O14777 whole entry, looked up): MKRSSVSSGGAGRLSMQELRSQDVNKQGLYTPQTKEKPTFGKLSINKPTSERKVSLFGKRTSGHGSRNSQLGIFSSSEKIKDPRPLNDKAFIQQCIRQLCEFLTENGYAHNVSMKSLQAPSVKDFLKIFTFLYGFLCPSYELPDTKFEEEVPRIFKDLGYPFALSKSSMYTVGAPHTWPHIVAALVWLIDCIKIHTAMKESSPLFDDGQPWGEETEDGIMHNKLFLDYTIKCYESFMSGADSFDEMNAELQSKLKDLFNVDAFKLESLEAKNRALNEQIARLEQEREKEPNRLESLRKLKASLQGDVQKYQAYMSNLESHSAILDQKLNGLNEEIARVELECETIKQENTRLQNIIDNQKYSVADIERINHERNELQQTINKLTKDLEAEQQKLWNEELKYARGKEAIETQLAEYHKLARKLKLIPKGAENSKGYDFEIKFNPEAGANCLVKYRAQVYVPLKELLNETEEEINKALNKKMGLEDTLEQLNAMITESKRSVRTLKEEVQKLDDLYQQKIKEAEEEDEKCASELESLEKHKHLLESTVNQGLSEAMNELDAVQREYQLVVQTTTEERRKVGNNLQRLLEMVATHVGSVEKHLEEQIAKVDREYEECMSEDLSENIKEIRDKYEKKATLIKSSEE

Substance “microtubules polymerised from bovine brain tubulin (from UniProt Q6B856 1-445) (complex)” has an MT end-retention time [1] of 1.1 min, a percent of MT plus-ends retained at the CENP-E–coated bead [1] of 24% and a time within which >80% of MTs detached (Kaplan–Meier) [1] of under 2.5 min. For the same substance, the percent of MT segments attached via their ends to beads coated with Ndc80 alone [2] was 3% and the reduction of CENP-E motor gliding velocity on beads by the Ndc80 coating [3] was 4 fold.
